In article PMC7170532 one finds stoichiometry N data, which are given here for one substance.

The experiment concerns the target latent myostatin (human) (UniProt O14793). Kind of experiment: SEC-MALS; SRT SEC-500 column, 20 mM phosphate, 200 mM NaCl pH 6.8; latent myostatin alone; 94 kDa observed, 82 kDa calculated.

Sequence of latent myostatin (O14793 whole entry, looked up): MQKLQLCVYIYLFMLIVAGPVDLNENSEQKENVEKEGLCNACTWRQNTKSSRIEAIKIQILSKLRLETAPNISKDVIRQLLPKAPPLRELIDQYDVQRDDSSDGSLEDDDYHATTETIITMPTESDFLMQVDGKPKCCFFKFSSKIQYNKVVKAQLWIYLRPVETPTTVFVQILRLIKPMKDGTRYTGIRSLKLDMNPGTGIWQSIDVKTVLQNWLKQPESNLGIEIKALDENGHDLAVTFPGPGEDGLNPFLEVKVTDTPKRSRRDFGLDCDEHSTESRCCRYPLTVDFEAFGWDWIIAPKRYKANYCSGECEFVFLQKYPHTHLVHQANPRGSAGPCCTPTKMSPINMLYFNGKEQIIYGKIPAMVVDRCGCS

The term stoichiometry N denotes the number of molecules, sites or subunits per partner or assembly. Regarding “latent myostatin (from UniProt O14793 267-375) (complex)”, the stoichiometry N was 2.
